From patent US20120108492A1, “LIGAND-SPECIFIC NON-ANTIBODY COMPOUNDS THAT INHIBIT CR2 ACTIVATION AND METHODS OF USE THEREOF” (The Regents of the University of Colorado, priority 2008, published 2012)

What was measured:
anti-CR2 SCR1-2 mAb 629 = test: MBP-CR2 SCR1-2-629 mAb ELISA; assay type: binding; settings: mutant MBP-CR2 SCR1-2 relative to wild-type; for % 629 mAb Bindng: plate-bound 629 mAb
Excerpt: The excellent correlation observed between our cell-binding studies and the ELISA analyses provides proof-of-principle that the MBP-CR2 SCR1-2 ELISA is an effective means of characterizing CR2-ligand interactions. […] See Asokan et al. (2006) J Immunol 177:383-94; Guthridge et al. (2001) J Immunol 167:5758-66; Young et al. (2007) J Biol Chem 282:36614-36625. […] This epitope overlaps extensively with the binding surface on CR2 described above for EBV gp350, and also with the previously described binding sites for C3dg and C3d. Hannan et al. (2005) J Mol Biol 346:845-58; and Young et al. (2007) J Biol Chem 282:36614-36625.
(§1) After coating, the plates were blocked using 0.1% BSA in a PBS solution, pH 7.4 for one hour at room temperature. The plates were then washed, and incubated with either wild-type or mutant MBP-CR2 SCR1-2, at concentrations ranging from 0.03125-2.0 μg/ml in PBS for one hour at room temperature. After further washing, wild-type or mutant MBP-CR2 binding was detected using commercially available horseradish peroxidase-conjugated anti-MBP mAb (New England Biolabs) according to the manufacturer's instructions.

[1] = system: anti-CR2 SCR1-2 monoclonal antibody 171; test: MBP-CR2 SCR1-2-171 mAb ELISA; assay type: binding; settings: mutant MBP-CR2 SCR1-2 relative to wild-type; for % 171 mAb Binding: plate-bound 171 mAb
Procedure: See Asokan et al. (2006) J Immunol 177:383-94; Guthridge et al. (2001) J Immunol 167:5758-66; Young et al. (2007) J Biol Chem 282:36614-36625. […] Hannan et al. (2005) J Mol Biol 346:845-58; and Young et al. (2007) J Biol Chem 282:36614-36625.
as §1

| Molecule | Weighting (629 mAb) (anti-CR2 SCR1-2 mAb 629) | % 629 mAb Bindng (anti-CR2 SCR1-2 mAb 629) [%] | Weighting (171 mAb) [1] | % 171 mAb Binding [1] [%] |
| --- | --- | --- | --- | --- |
| S32A: single-site mutant of recombinant MBP-CR2 SCR1-2 (protein, left off: large carriers; small tags and cut ends) ISCGSPPPILNGRISYYSTPIAVGTVIRYSCAGTFRLIGEKSLLCITKDKVDGTWDKPAPKCEYFNKYSSCPEPIVPGGYKIRGSTPYRHGDSVTFACKTNFSMNGNKSVWCQANNMWGPTRLPTCVSVFPLE | ++++ (++++>90%) | 117.8 | +++ (+++89.9-70%) | 77.5 |
| K50A: single-site mutant of recombinant MBP-CR2 SCR1-2 (protein, left off: large carriers; small tags and cut ends) ISCGSPPPILNGRISYYSTPIAVGTVIRYSCSGTFRLIGEKSLLCITKDAVDGTWDKPAPKCEYFNKYSSCPEPIVPGGYKIRGSTPYRHGDSVTFACKTNFSMNGNKSVWCQANNMWGPTRLPTCVSVFPLE | +++ (+++89.9-70%) | 87.5 | ++++ (++++>90%) | 94.4 |
| R13A: single-site mutant of recombinant MBP-CR2 SCR1-2 (protein, left off: large carriers; small tags and cut ends) ISCGSPPPILNGAISYYSTPIAVGTVIRYSCSGTFRLIGEKSLLCITKDKVDGTWDKPAPKCEYFNKYSSCPEPIVPGGYKIRGSTPYRHGDSVTFACKTNFSMNGNKSVWCQANNMWGPTRLPTCVSVFPLE | ++++ (++++>90%) | 108.1 | − (−19.9-0%) | 15.6 |
| T34A: single-site mutant of recombinant MBP-CR2 SCR1-2 (protein, left off: large carriers; small tags and cut ends) ISCGSPPPILNGRISYYSTPIAVGTVIRYSCSGAFRLIGEKSLLCITKDKVDGTWDKPAPKCEYFNKYSSCPEPIVPGGYKIRGSTPYRHGDSVTFACKTNFSMNGNKSVWCQANNMWGPTRLPTCVSVFPLE | +++ (+++89.9-70%) | 84.9 | − (−19.9-0%) | 12.4 |
| M117A: single-site mutant of recombinant MBP-CR2 SCR1-2 (protein, left off: large carriers; small tags and cut ends) ISCGSPPPILNGRISYYSTPIAVGTVIRYSCSGTFRLIGEKSLLCITKDKVDGTWDKPAPKCEYFNKYSSCPEPIVPGGYKIRGSTPYRHGDSVTFACKTNFSMNGNKSVWCQANNAWGPTRLPTCVSVFPLE | ++++ (++++>90%) | 113.8 | ++++ (++++>90%) | 97.2 |
| T86A: single-site mutant of recombinant MBP-CR2 SCR1-2 (protein, left off: large carriers; small tags and cut ends) ISCGSPPPILNGRISYYSTPIAVGTVIRYSCSGTFRLIGEKSLLCITKDKVDGTWDKPAPKCEYFNKYSSCPEPIVPGGYKIRGSAPYRHGDSVTFACKTNFSMNGNKSVWCQANNMWGPTRLPTCVSVFPLE | +++ (+++89.9-70%) | 85.6 | +++ (+++89.9-70%) | 89.6 |
| N11A: single-site mutant of recombinant MBP-CR2 SCR1-2 (protein, left off: large carriers; small tags and cut ends) ISCGSPPPILAGRISYYSTPIAVGTVIRYSCSGTFRLIGEKSLLCITKDKVDGTWDKPAPKCEYFNKYSSCPEPIVPGGYKIRGSTPYRHGDSVTFACKTNFSMNGNKSVWCQANNMWGPTRLPTCVSVFPLE | +++ (+++89.9-70%) | 87.5 | + (+39.9-20%) | 24.1 |
| Y68A: single-site mutant of recombinant MBP-CR2 SCR1-2 (protein, left off: large carriers; small tags and cut ends) ISCGSPPPILNGRISYYSTPIAVGTVIRYSCSGTFRLIGEKSLLCITKDKVDGTWDKPAPKCEYFNKASSCPEPIVPGGYKIRGSTPYRHGDSVTFACKTNFSMNGNKSVWCQANNMWGPTRLPTCVSVFPLE | ++++ (++++>90%) | 102.3 | ++++ (++++>90%) | 92.1 |
| R36A: single-site mutant of recombinant MBP-CR2 SCR1-2 (protein, left off: large carriers; small tags and cut ends) ISCGSPPPILNGRISYYSTPIAVGTVIRYSCSGTFALIGEKSLLCITKDKVDGTWDKPAPKCEYFNKYSSCPEPIVPGGYKIRGSTPYRHGDSVTFACKTNFSMNGNKSVWCQANNMWGPTRLPTCVSVFPLE | ++++ (++++>90%) | 113.9 | − (−19.9-0%) | 19.8 |
| Y64A: single-site mutant of recombinant MBP-CR2 SCR1-2 (protein, left off: large carriers; small tags and cut ends) ISCGSPPPILNGRISYYSTPIAVGTVIRYSCSGTFRLIGEKSLLCITKDKVDGTWDKPAPKCEAFNKYSSCPEPIVPGGYKIRGSTPYRHGDSVTFACKTNFSMNGNKSVWCQANNMWGPTRLPTCVSVFPLE | +++ (+++89.9-70%) | 82.0 | − (−19.9-0%) | 5.8 |
